We go through 9 compounds from publication PMC11876737, “Side-by-Side Comparison of the In Vivo Performance of [^212Pb]Pb-DOTAMTATE and Other SSTR2-Targeting Compounds” (Journal of Nuclear Medicine, 2025).

Read-outs that look alike come from different tables or passages of the source. Positions of bridges follow the written chain, without caps; N, C: chain ends. Non-standard residues stand in square brackets, D forms with d. Residues, ends and D or L forms follow the SMILES beside them. *: point of attachment. DO3AM = NC(=O)CN1CCN(CC(N)=O)CCN(CC(=O)*)CCN(CC(N)=O)CC1; dPhe(4-NHCONH2) = NC(=O)Nc1ccc(C[C@@H](N)C(=O)O)cc1; Dihydroorotyl(S) = O=C1C[C@@H](C(=O)*)NC(=O)N1; Phe(4-Cl) = N[C@@H](Cc1ccc(Cl)cc1)C(=O)O; Phe(4-NH2) = Nc1ccc(C[C@H](N)C(=O)O)cc1

In data set [1] the test system is SSTR2-overexpressing tumors, AR42J. Description: Biodistribution of ^212Pb SSTR2 analogs in AR42J tumor-bearing mice. In kind it is in vivo, athymic nude female mice. On the procedure: (§1) The background was automatically subtracted from the counts. A standard was also used for decay correction to time of injection or time of collection. The percent injected dose per gram (%ID/g) was calculated for each organ collected.  FIGURE 2. In vivo distribution of ^212Pb-radiolabeled SSTR2 analogs in athymic nude female mice carrying subcutaneous AR42J tumors. […] Tissue uptake is expressed as %ID/g ± SD decay corrected to time of injection (n = 4-5). In our study, we propose to use the integral of the time-activity curve, also known as the AUC, as a surrogate measure for estimating the absorbed dose. We calculated all SSTR2 analogs' AUC for kidneys and tumors including tumor-to-kidney ratios (T/K AUC ratio) (Figs. 3 and 4). We observed distinct AUC patterns and consequently distinct T/K AUC ratios across the different compounds.

Assay in data set [2]: as above
The format is in vivo, athymic nude female mice. The settings on record: female, athymic nude, mouse, in vivo, iv, total radioactivity. The procedure:
as §1

A short description of data set [3]: ^212Pb chelate RCY after 24 h at room temperature (instant thin-layer chromatography). Particulars: 24 h at RT; 444 MBq/50 μg (27.5 nmol); triplicate ± SD. In kind it is physicochemical. The procedure: The radioisotope-free compounds were diluted in metal-free water at needed concentrations and were stored at -20°C. ^212Pb was produced using ^224Ra generators (Orano Med LLC). Chelation was performed by incubating 27.5 nmol of peptide per 444 MBq of ^212Pb for 10 min at room temperature in 0.4 M ammonium acetate buffer, with a pH of 6.1. Radiochemical purity, assayed by instant thin-layer chromatography was used to confirm that ^212Pb chelation was greater than 95%. Radiolabeled peptides were spotted onto an instant thin-layer chromatography strip and allowed to migrate in a 22% citrate buffer. The instant thin-layer chromatography strip was then cut in half and counted using a calibrated Perkin Elmer Wizard2 2470 automatic γ-counter with an energy window of 185-250 keV considering ^212Pb major emitted γ-rays (238 keV). Samples were diluted to appropriate activity before injection in a buffer containing ascorbic acid, ethanol, and polysorbate-20. […], and PSC-PEG2-TATE (Fig. 1) were radiolabeled at a specific activity of 444 MBq per 50 μg (or 27.5 nmol) in a chelation buffer containing 5% ethanol, 20 mM ascorbic acid, and 0.02% polysorbate 80. The chelation of ^212Pb appears to occur more slowly with the PSC than with the DOTA and DOTAM chelators. […] The RCY remained above 95% at 24 h for all compounds.

A further data set deals with somatostatin receptor 3. The arrangement: method as in PMID 10774879. The settings on record: cited from earlier work.
A further data set concerns somatostatin receptor 5. Also on record: method as in PMID 10774879. The settings on record: cited from earlier work.
The subject of the next data set is SSTR2. Particulars: cited from earlier work.
[4] abbreviates: time-activity curve of %ID/g at 1, 4, 24 h, decay corrected to time of collection.

In the case of `C[C@@H](O)[C@@H]1NC(=O)[C@H](CCCCN)NC(=O)[C@@H](Cc2ccc(NC(N)=O)cc2)NC(=O)[C@H](Cc2ccc(NC(=O)[C@@H]3CC(=O)NC(=O)N3)cc2)NC(=O)[C@H](NC(=O)[C@H](Cc2ccc(Cl)cc2)NC(=O)CN2CCN(CC(N)=O)CCN(CC(N)=O)CCN(CC(N)=O)CC2)CSSC[C@@H](C(=O)N[C@H](Cc2ccc(O)cc2)C(N)=O)NC1=O` [[^212Pb]Pb-DOTAM-JR11, DOTAM-p-Cl-Phe-cyclo(D-Cys-Aph(Hor)-D-Aph(Cbm)-Lys-Thr-Cys)D-Tyr-ONH2, metal not drawn] (DO3AM-[Phe(4-Cl)][dC][Phe(4-NH2)](Dihydroorotyl(S))[dPhe(4-NHCONH2)]KTC[dY]-NH2; disulfide 2-7), in data set [1] (mouse, in vivo), the “AR42J tumor AUC” value came to 363 ± 75; the “Kidney AUC” value turned out to be 274 ± 19; the tumor retention entry was “favorable tumor retention”; the “uptake in healthy tissues such as the stomach, the lungs, and spleen” value is reported as “higher compared with uptake of the other SSTR2 analogs”.

On to `C[C@@H](O)[C@H](NC(=O)[C@@H]1CSSC[C@H](NC(=O)[C@@H](Cc2ccccc2)NC(=O)CN2CCN(CC(N)=O)CCN(CC(N)=O)CCN(CC(N)=O)CC2)C(=O)N[C@@H](Cc2ccc(O)cc2)C(=O)N[C@H](Cc2c[nH]c3ccccc23)C(=O)N[C@@H](CCCCN)C(=O)N[C@@H]([C@@H](C)O)C(=O)N1)C(=O)O` [[^212Pb]Pb-DOTAMTATE, metal not drawn], for which, in data set [1] (mouse, in vivo), the “AR42J tumor AUC” value turned out to be 583 ± 58; the “Kidney AUC” value is on record as 186 ± 28; the “uptake in healthy tissues such as the stomach, the lungs, and spleen” value was “higher compared with uptake of the other SSTR2 analogs”. Besides, in data set [2], the tissue uptake at 4 h was around 50 %ID/g.

`C[C@@H](O)[C@H](NC(=O)[C@@H]1CSSC[C@H](NC(=O)[C@@H](Cc2ccccc2)NC(=O)CN2CCN(CC(=O)O)CCN(CC(=O)O)CCN(CC(=O)O)CC2)C(=O)N[C@@H](Cc2ccc(O)cc2)C(=O)N[C@H](Cc2c[nH]c3ccccc23)C(=O)N[C@@H](CCCCN)C(=O)N[C@@H]([C@@H](C)O)C(=O)N1)C(=O)O` [[^212Pb]Pb-DOTATATE, metal not drawn, reference compound]: the RCY in data set [3] was 98.3% ± 1.2%. In addition, in data set [1] (decay corrected to time of collection), the “Tumor AUC / Kidney AUC ratio (T/K AUC ratio)” value was 0.73. Also, in data set [1] (setting [4]), the “AR42J tumor AUC” value is 122 ± 12 and the “Kidney AUC” value is given as 161 ± 21. Also, the “biodistribution profile / accumulation in healthy tissues” value in data set [1] (tumor-bearing female mice) is on record as “distinctly cleaner”. Besides, the tissue uptake at 4 h in data set [2] (444 kBq, 4 h after injection, i.v., AR42J tumor, read-out: average tumor uptake) is around 10 %ID/g.

Take `C[C@@H](O)[C@H](NC(=O)[C@@H]1CSSC[C@H](NC(=O)[C@@H](Cc2ccccc2)NC(=O)CCOCCOCCNC(=O)CN2CCN(CC(=O)O)CCN(CC(N)=O)CCN(CC(=O)O)CC2)C(=O)N[C@@H](Cc2ccc(O)cc2)C(=O)N[C@H](Cc2c[nH]c3ccccc23)C(=O)N[C@@H](CCCCN)C(=O)N[C@@H]([C@@H](C)O)C(=O)N1)C(=O)O` [[^212Pb]Pb-PSC-PEG2-TATE, PSC-amino-PEG2-acid-D-Phe-cyclo(Cys-Tyr-D-Trp-Lys-Thr-Cys)Thr-COOH, metal not drawn]: in data set [1] (mouse, in vivo), the “AR42J tumor AUC” value was 274 ± 59 and the “Kidney AUC” value is given as 290 ± 27.

Take `C[C@@H](O)[C@H](NC(=O)[C@@H]1CSSC[C@H](NC(=O)[C@@H](Cc2ccccc2)NC(=O)CN2CCN(CC(=O)O)CCN(CC(N)=O)CCN(CC(=O)O)CC2)C(=O)N[C@@H](Cc2ccc(O)cc2)C(=O)N[C@H](Cc2c[nH]c3ccccc23)C(=O)N[C@@H](CCCCN)C(=O)N[C@@H]([C@@H](C)O)C(=O)N1)C(=O)O` [[^212Pb]Pb-PSC-TATE, PSC-D-Phe-cyclo(Cys-Tyr-D-Trp-Lys-Thr-Cys)Thr-COOH, metal not drawn]: in data set [1] (mouse, in vivo), the “AR42J tumor AUC” value worked out at 177 ± 22 and the “Kidney AUC” value was 156 ± 24.

In the case of `C[C@@H](O)[C@@H]1NC(=O)[C@H](CCCCN)NC(=O)[C@@H](Cc2c[nH]c3ccccc23)NC(=O)[C@H](Cc2ccc(O)cc2)NC(=O)[C@@H](NC(=O)[C@@H](Cc2ccccc2)NC(=O)CCOCCOCCNC(=O)CN2CCN(CC(=O)O)CCN(CC(N)=O)CCN(CC(=O)O)CC2)CSSC[C@@H](C(=O)N[C@H](CO)[C@@H](C)O)NC1=O` [^212Pb-PSC-PEG2-TOC, PSC-amino-PEG2-acid-D-Phe-cyclo(Cys-Tyr-D-Trp-Lys-Thr-Cys)Thr-OH, metal not drawn, reference compound], in data set [1] (mouse, in vivo), the “AR42J tumor AUC” value amounted to 290 ± 45 and the “Kidney AUC” value was determined as 320 ± 51.

Regarding `C[C@@H](O)[C@@H]1NC(=O)[C@H](CCCCN)NC(=O)[C@@H](Cc2c[nH]c3ccccc23)NC(=O)[C@H](Cc2ccc(O)cc2)NC(=O)[C@@H](NC(=O)[C@@H](Cc2ccccc2)NC(=O)CN2CCN(CC(=O)O)CCN(CC(N)=O)CCN(CC(=O)O)CC2)CSSC[C@@H](C(=O)N[C@H](CO)[C@@H](C)O)NC1=O` [^212Pb-PSC-TOC, PSC-D-Phe-cyclo(Cys-Tyr-D-Trp-Lys-Thr-Cys)Thr-OH, metal not drawn], in data set [1] (mouse, in vivo), the “AR42J tumor AUC” value stood at 353 ± 52 and the “Kidney AUC” value is listed as 377 ± 34.

Regarding octreotate, the “affinity for somatostatin receptor 3” value with somatostatin receptor 3 was “minimal binding”. Moreover, in the data set with somatostatin receptor 5, the “affinity for somatostatin receptor 5” value was “moderate affinity”. Also, the “binding to SSTR2 relative to TOC” value in the data set with SSTR2 was “approximately 10 fold”.

Take octreotide [TOC]: the “affinity for somatostatin receptor 3” value in the data set with somatostatin receptor 3 is recorded as “high affinity”. Besides, in the data set on somatostatin receptor 5, the “affinity for somatostatin receptor 5” value was “high affinity”. Further, in the data set on SSTR2, the “affinity for SSTR2” value is on record as “high affinity”.
